Measurements from patent US20230272390A1, “COMPOSITIONS AND METHODS FOR HEMOGLOBIN PRODUCTION” (THE CHILDREN'S HOSPITAL OF PHILADELPHIA, priority 2020, published 2023).

How the values were obtained:
[1] = system: motifs from the CHD4 promoter and enhancer sites; assay: EMSA with COS-7 nuclear extracts and radiolabeled probes; type: binding, human; settings: COS nuclear extracts, FLAG-tagged constructs, radiolabeled CHD4 motif probes
Description: Nuclear extracts were prepared from COS-7 cells transiently transfected with ZNF410 full-length and ZNF410 ZF1-5 plasmids. FuGENE® 6 (Promega) was used to transfect 5 μg of vector into 100 mm plates of COS-7 cells. A pcDNA3 empty vector was used as control. Cells were harvested 48 hours after transfection and nuclear extracts prepared (Andrews, et al. (1991) Nucleic Acids Res., 19:2499).
EMSAs were performed (Crossley, et al. (1996) Mol. Cell Biol., 16:1695-1705). The sense oligonucleotide was labelled with [γ-^32P]-adenosine triphosphate (Perkin Elmer) and boiled at 100° C. for 1 minute before addition of the antisense oligonucleotide and annealing of probe via slow cooling from 100° C. to room temperature. Probes were purified using Quick Spin Columns for radio-labelled DNA Purification (Roche). Nuclear extracts were harvested from COS-7 cells and samples and loaded on a 6% native polyacrylamide gel in TBE buffer (45 mM Tris, 45 mM boric acid, 1 mM EDTA). A ‘COS empty’ control lane was included to show binding of any background endogenous protein to the probe. […] Gels were run at 250 V for 1 hour, 45 minutes at 4° C. then dried under vacuum. […]
ZNF410 contains five tandem C2H2-type zinc fingers (ZFs) potentially involved in DNA binding (FIG. 5A). […] Direct DNA binding by full length (FL) ZNF410 to sequences found at the CHD4 gene was assessed by electrophoretic mobility shift assays (EMSAs). […]

[2] = target: oligo containing the consensus motif; assay: Fluorescence polarization DNA binding assay, consensus oligo; set-up: species or system human; settings: purified GST fusion protein, 17-bp oligo containing the consensus motif, read-out: dissociation constant (KD)
Description: The fragment of Human ZNF410 (NP_001229855.1) comprising of five zinc finger domains ZF1-5 (residues 217-366) was cloned into pGEX-6P-1 vector with a GST fusion tag (pXC2180). The plasmid was transformed into Escherichia coli strain BL21-Codon-plus(DE3)-RIL (Stratagene). Bacteria was grown in LB broth in a shaker at 37° C. until reaching the log phase (A600 nm between 0.4 and 0.5), the shaker temperature was then set to 16° C. and 25 μM ZnCl2 was added to the cell culture. When the shaker temperature reached 16° C. and A600 nm reached ˜0.8, the protein expression was induced by the addition of 0.2 mM isopropyl-3-D-thiogalactopyranoside with subsequent growth for 20 hours at 16° C. […]
Fluorescence polarization (FP) method was used to measure the binding affinity using a Synergy™ 4 Microplate Reader (BioTek). […]
To further gain insight into the molecular basis of how the ZNF410 tandem ZF domain recognizes its targeting DNA sequence, crystallization of the ZNF410-DNA complex was performed. The binding affinity of the ZNF410 ZF domain (ZF1-5) with the consensus motif was quantified by fluorescence polarization using purified GST fusion protein (Patel, et al. (2016) Methods Enzymol., 573:387-401). […]

B1: ZF1-5: fragment of human ZNF410 comprising five zinc finger domains ZF1-5 (residues 217-366); dominant-negative when overexpressed (protein)
chain: KKLKCTVEGCDRTFVWPAHFKYHLKTHRNDRSFICPAEGCGKSFYVLQRLKVHMRTHNGEKPFMCHESGCGKQFTTAGNLKNHRRIHTGEKPFLCEAQGCGRSFAEYSSLRKHLVVHSGEKPHQCQVCGKTFSQSGSRNVHMRKHHLQLG
modifications: left off: small tags and cut ends
notes: fragment of human ZNF410 comprising five zinc finger domains ZF1-5 (residues 217-366); dominant-negative when overexpressed
With B1 the “DNA binding in EMSA” value [1] was “strong DNA binding” and the Kd [2] was 22 nM.
